Measurements taken from PMC7954794, “Protein context shapes the specificity of SH3 domain-mediated interactions in vivo” (Nature Communications, 2021).

Key:
Type in all cases: cell-based, Saccharomyces cerevisiae
BEM1-2 = assay: DHFR-PCA on solid medium, bait BEM1-2 (Fig. 1B); conditions: bait BEM1-2, label = prey; for medrep (log2 median colony size normalized to plate background, PCA score): 2-8 replicates; for Ratio (SH3-deleted/WT medrep): only significant differences showed, PPIs completely lost have a ratio of 0.1 and the gained PPIs 2.5
Excerpt: (§1) Supplement 41467_2021_21873_MOESM8_ESM.xlsx, sheet "Fig1B" | column: medsize; medrep; Ratio; Score

BOI2 = assay: DHFR-PCA on solid medium, bait BOI2 (Fig. 1B); conditions: bait BOI2, label = prey; 3-8 replicates
Excerpt: as §1

BEM1-1 = assay: DHFR-PCA on solid medium, bait BEM1-1 (Fig. 1B); conditions: bait BEM1-1, label = prey; 2-8 replicates
Excerpt: as §1

BOI1 = assay: DHFR-PCA on solid medium, bait BOI1 (Fig. 1B); conditions: bait BOI1, label = prey; for medrep (log2 median colony size normalized to plate background, PCA score): 3-8 replicates; for Ratio (SH3-deleted/WT medrep): only significant differences showed, PPIs completely lost have a ratio of 0.1 and the gained PPIs 2.5
Excerpt: as §1

BBC1 = assay: DHFR-PCA on solid medium, bait BBC1 (Fig. 1B); conditions: bait BBC1, label = prey; for medrep (log2 median colony size normalized to plate background, PCA score): 2-4 replicates; for Ratio (SH3-deleted/WT medrep): only significant differences showed, PPIs completely lost have a ratio of 0.1 and the gained PPIs 2.5
Excerpt: as §1

ABP1 = assay: DHFR-PCA on solid medium, bait ABP1 (Fig. 1B); conditions: bait ABP1, label = prey
Excerpt: as §1

BUD14 = assay: DHFR-PCA on solid medium, bait BUD14 (Fig. 1B); conditions: bait BUD14, label = prey; for medrep (log2 median colony size normalized to plate background, PCA score): 4 replicates
Excerpt: as §1

[1] = only significant differences showed, PPIs completely lost have a ratio of 0.1 and the gained PPIs 2.5

B1: YML016C (protein, UniProt P26570 2-692, looked up)
Serine/threonine-protein …: GNSSSKSSKKDSHSNSSSRNPRPQVSRTETSHSVKSAKSNKSSRSRRSLPSSSTTNTNSNVPDPSTPSKPNLEVNHQRHSSHTNRYHFPSSSHSHSNSQNELLTTPSSSSTKRPSTSRRSSYNTKAAADLPPSMIQMEPKSPILKTNNSSTHVSKHKSSYSSTYYENALTDDDNDDKDNDISHTKRFSRSSNSRPSSIRSGSVSRRKSDVTHEEPNNGSYSSNNQENYLVQALTRSNSHASSLHSRKSSFGSDGNTAYSTPLNSPGLSKLTDHSGEYFTSNSTSSLNHHSSRDIYPSKHISNDDDIENSSQLSNIHASMENVNDKNNNITDSKKDPNEEFNDIMQSSGNKNAPKKFKKPIDIDETIQKLLDAGYAAKRTKNVCLKNNEILQICIKAREIFLSQPSLLELSPPVKIVGDVHGQYGDLLRLFTKCGFPPSSNYLFLGDYVDRGKQSLETILLLFCYKIKYPENFFLLRGNHECANVTRVYGFYDECKRRCNIKIWKTFIDTFNTLPLAAIVAGKIFCVHGGLSPVLNSMDEIRHVVRPTDVPDFGLINDLLWSDPTDSPNEWEDNERGVSYCYNKVAINKFLNKFGFDLVCRAHMVVEDGYEFFNDRSLVTVFSAPNYCGEFDNWGAVMSVSEGLLCSFELLDPLDSAALKQVMKKGRQERKLANQQQQMMETSITNDNESQQ
- medrep (log2 median colony size normalized to plate background, PCA score) (BEM1-2): 2.424
- Ratio (SH3-deleted/WT medrep) (BEM1-2): 0.1
- medrep (log2 median colony size normalized to plate background, PCA score) (BOI2): 2.013
- medrep (log2 median colony size normalized to plate background, PCA score) (BEM1-1): 2.424
- medrep (log2 median colony size normalized to plate background, PCA score) (BOI1): 1.566
- Ratio (SH3-deleted/WT medrep) (BOI1): 2.5
- medrep (log2 median colony size normalized to plate background, PCA score) (BBC1): 1.933
- Ratio (SH3-deleted/WT medrep) (BBC1): 0.1
- medrep (log2 median colony size normalized to plate background, PCA score) (ABP1; 2-4 replicates): 2.329
- Ratio (SH3-deleted/WT medrep) (ABP1; [1]): 1.5236

B2: YGR281W (protein, UniProt P53049 1-1477, looked up)
Oligomycin resistance …: MTITVGDAVSETELENKSQNVVLSPKASASSDISTDVDKDTSSSWDDKSLLPTGEYIVDRNKPQTYLNSDDIEKVTESDIFPQKRLFSFLHSKKIPEVPQTDDERKIYPLFHTNIISNMFFWWVLPILRVGYKRTIQPNDLFKMDPRMSIETLYDDFEKNMIYYFEKTRKKYRKRHPEATEEEVMENAKLPKHTVLRALLFTFKKQYFMSIVFAILANCTSGFNPMITKRLIEFVEEKAIFHSMHVNKGIGYAIGACLMMFVNGLTFNHFFHTSQLTGVQAKSILTKAAMKKMFNASNYARHCFPNGKVTSFVTTDLARIEFALSFQPFLAGFPAILAICIVLLIVNLGPIALVGIGIFFGGFFISLFAFKLILGFRIAANIFTDARVTMMREVLNNIKMIKYYTWEDAYEKNIQDIRTKEISKVRKMQLSRNFLIAMAMSLPSIASLVTFLAMYKVNKGGRQPGNIFASLSLFQVLSLQMFFLPIAIGTGIDMIIGLGRLQSLLEAPEDDPNQMIEMKPSPGFDPKLALKMTHCSFEWEDYELNDAIEEAKGEAKDEGKKNKKKRKDTWGKPSASTNKAKRLDNMLKDRDGPEDLEKTSFRGFKDLNFDIKKGEFIMITGPIGTGKSSLLNAMAGSMRKTDGKVEVNGDLLMCGYPWIQNASVRDNIIFGSPFNKEKYDEVVRVCSLKADLDILPAGDMTEIGERGITLSGGQKARINLARSVYKKKDIYLFDDVLSAVDSRVGKHIMDECLTGMLANKTRILATHQLSLIERASRVIVLGTDGQVDIGTVDELKARNQTLINLLQFSSQNSEKEDEEQEAVVAGELGQLKYESEVKELTELKKKATEMSQTANSGKIVADGHTSSKEERAVNSISLKIYREYIKAAVGKWGFIALPLYAILVVGTTFCSLFSSVWLSYWTENKFKNRPPSFYMGLYSFFVFAAFIFMNGQFTILCAMGIMASKWLNLRAVKRILHTPMSYIDTTPLGRILNRFTKDTDSLDNELTESLRLMTSQFANIVGVCVMCIVYLPWFAIAIPFLLVIFVLIADHYQSSGREIKRLEAVQRSFVYNNLNEVLGGMDTIKAYRSQERFLAKSDFLINKMNEAGYLVVVLQRWVGIFLDMVAIAFALIITLLCVTRAFPISAASVGVLLTYVLQLPGLLNTILRAMTQTENDMNSAERLVTYATELPLEASYRKPEMTPPESWPSMGEIIFENVDFAYRPGLPIVLKNLNLNIKSGEKIGICGRTGAGKSTIMSALYRLNELTAGKILIDNVDISQLGLFDLRRKLAIIPQDPVLFRGTIRKNLDPFNERTDDELWDALVRGGAIAKDDLPEVKLQKPDENGTHGKMHKFHLDQAVEEEGSNFSLGERQLLALTRALVRQSKILILDEATSSVDYETDGKIQTRIVEEFGDCTILCIAHRLKTIVNYDRILVLEKGEVAEFDTPWTLFSQEDSIFRSMCSRSGIVENDFENRS
- medrep (log2 median colony size normalized to plate background, PCA score) (BEM1-2): 2.579
- Ratio (SH3-deleted/WT medrep) (BEM1-2): 0.1
- medrep (log2 median colony size normalized to plate background, PCA score) (BOI2): 2.696
- medrep (log2 median colony size normalized to plate background, PCA score) (BEM1-1): 2.579
- medrep (log2 median colony size normalized to plate background, PCA score) (BOI1): 1.486
- Ratio (SH3-deleted/WT medrep) (BOI1): 2.5
- medrep (log2 median colony size normalized to plate background, PCA score) (BBC1): 1.516
- Ratio (SH3-deleted/WT medrep) (BBC1): 0.4155

B3: YGR238C (protein, UniProt P50090 1-882, looked up)
Kelch repeat-containing …: MVPFKLTNKVPTDTGPSLISAQSVPRPIVFMDNRNNTRIVTPTLPPNQHRGISGASTALPWSPESKNTGKYIWNRVKLKNSPFPRYRHSSSFIVTNDNRIFVTGGLHDQSVYGDVWQIAANADGTSFTSKRIDIDQNTPPPRVGHASTICGNAYVVFGGDTHKLNKNGLLDDDLYLFNINSYKWTIPQPIGRRPLGRYGHKISIIASNPMQTKLYLFGGQVDETYFNDLVVFDLSSFRRPNSHWEFLEPVGDLPPPLTNHTMVAYDNKLWVFGGETPKTISNDTYRYDPAQSEWSKVKTTGEKPPPIQEHASVVYKHLMCVLGGKDTHNAYSNDVYFLNLLSLKWYKLPRMKEGIPQERSGHSLTLMKNEKLLIMGGDKTDYASPNIHDLQTSETDQGEGTLLYTLDLSSLNELCPGIMCESLHAGESFSNSLSGGFTPSKSTESENQEIINILTPRLPDSKVLSYNDIDEGAGSYSSALDDKAFERKSDREEKKPQSSKVDSSINKESPGTGIKVSKKNFPVLRGLTVDSEEYGSSSYKDTSCQKGIPKNLFDDLNLNLQTLRLEAQQKELETARHISQLEKEVQRLMVIKEASKDSNFQTARLKNLEIQKTFLESRINDLKNLLMVKLSQASKLCDQITIQNNGLKTCSEHVTIKRDIIDLENKCDVLKRQNEILVNNMQKITPELHTYLNESSCYLGKLLKSYPTSARPPSSEKDNQIYEKDSLNKIEKVINEMHETVRAKEKLHLETQKLNDERDSLRANLLDNNNKLDALRKLSDGSSKSMDLTKKAIHLSQSELEKYRKNNDDLQKEIDRIKTEQAEQDDKQEQRGAITHGNFDAFHRMKINNLKAELYMSKENRDSLKDELLALKKKLYTLEQKK
- medrep (log2 median colony size normalized to plate background, PCA score) (BUD14): 3.527

B4: YHR158C (protein, UniProt P38853 1-1164, looked up)
Kelch repeat-containing …: MAGFSFAKKFTHKKHGKTPSDASISDQSREASLSTPPNEKFFTKQETPQKGRQFSQGYHSNVNKTSSPPMFARKQVSESRIQPSAVPPQQRNVSGPSTTLHKQLSKQREYTVWNRIKLQNSPFPRYRHVASAYVTDKNQIYVIGGLHDQSVYGDTWILTAFDNATRFSTTTIDISEATPPPRVGHAAVLCGNAFVVFGGDTHKVNKEGLMDDDIYLLNINSYKWTVPAPVGPRPLGRYGHKISIIATTQMKTKLYVFGGQFDDTYFNDLAVYDLSSFRRPDSHWEFLKPRTFTPPPITNFTMISYDSKLWVFGGDTLQGLVNDVFMYDPAINDWFIIDTTGEKPPPVQEHATVVYNDLMCVVGGKDEHDAYLNSVYFLNLKSRKWFKLPVFTAGIPQGRSGHSLTLLKNDKILIMGGDKFDYARVEEYDLHTSDIDMQRGTIVYTLDLARIKDLCPGVMDVPTDTPTPRNGNLDLATPVTPTSHQTKNMNVPISAAPLASAPSPAPKDFSDADRLNREVHNRNVSTEHQNQSHPVNSESHLIAEPNILTPYVPSESSQTPVMKITSNKPFDTPTIQKEPDLSETMDPTVGNQRIPSSIYGDNLTPANQIKNNSPILETLPSNEIKTPQNGNIEEIKHLPDADEKIDSTTTFDQEINGDKLGTSSMSKVEEDGNVADEDDEIGVAQMASSPSKDQFKIKHYNESSELSQNNTEIDKLSEPVDITIKKSDTAGHDSANHVIDASDEKNVSPMGDVPTDTKNEEASVPINRDATTEVVDRALFEKLRSELQSLKELTHEKALEAGAHIKELETELWQLKSQKNSGTTKEIDELDSVRLQSKCEILEADNHSLEDKVNELEELVNSKFLDIENLNEVIQFQNEKIKSLELEPNYKEKLEELQIEHENLSRENERLKNESKQHNEDIINNVANYSSQLGSLISHWKENRANSSFLESSSSLISVSDENGEKTVGEPYGDQSRHHRVVINKLTNRLDDLLERSQELTISKEKLSSEYHALKMEHSSLSQDVLVKENEIKKIQNDYKESISSMDSASKALMVSQRELEKYKSLNKKLIDELDELKFKNGVCSENFENGLRSTEESSNNVKNSNSIRENQFNIKINDLKAELFITNQERDDLKSEVLELKKRLLNLENNTKQVNEDADSDLL
- medrep (log2 median colony size normalized to plate background, PCA score) (BUD14): 3.841

B5: YER149C (protein, UniProt P40091 1-420, looked up)
Protein PEA2: MHKFDLELSRRANPLLFSAERYEEYPLKYDELKQYLLSQNPSHPHHNSRPYTSIDYFDYLLYRSKNDESEIDLDKKLVSEFALYYVQKEHLNSDDLNPTLNELLKLQPKSADWYEMMLRILESINTTGIDQLTKENNNSFPNSKRARSSTNMGGTDKFNKGAYHTDKADDDKNEILQELTSFLMSNSIQKGIDIKPIPLDDPVKFLKNGINSILDTCVSLEKNTSSPPISPNAAAIQEEDSSKKLEELETAFSDLQLAHNFLTKQFENDRAEYVQDIEKLTRTNRELQDKLLNNHSNLSKTEKKLHELEQENKELEKANNKLNSSRHNFGMSSPASSPVTWDPSSPSSVGSPTSGSGSRSLSIMTSEFKKVLTSTQRKYEKELSDEREHRFKLERELALLKNAEANTSLALNRDDPPDML
- medrep (log2 median colony size normalized to plate background, PCA score) (BUD14): 1.879
- Ratio (SH3-deleted/WT medrep) (BUD14; [1]): 0.1
